Columns and labels:
His tagged TGF-β1 = His tagged TGF-β1 (UniProt P01137 279-390); experiment: BLI
His-tagged huPD-L1 = His-tagged huPD-L1 (human, UniProt Q9NZQ7 19-238); experiment: BLI
huTGF-β1 = huTGF-β1 (human, UniProt P01137 279-390); experiment: ELISA; simultaneous binding, detected with biotinylated hu PD-L1
[1] = biological target: FITC labeled human PD-L1-Fc protein (human, UniProt Q9NZQ7 19-238, FITC labeled (sites not given)); experiment: FACS blocking of PD-L1/PD-1
[2] = biological target: human PD-L1 on CHO-K1 cells (human, UniProt Q9NZQ7 19-290); experiment: FACS binding
Sequence of human PD-L1 on CHO-K1 cells (Q9NZQ7 19-290): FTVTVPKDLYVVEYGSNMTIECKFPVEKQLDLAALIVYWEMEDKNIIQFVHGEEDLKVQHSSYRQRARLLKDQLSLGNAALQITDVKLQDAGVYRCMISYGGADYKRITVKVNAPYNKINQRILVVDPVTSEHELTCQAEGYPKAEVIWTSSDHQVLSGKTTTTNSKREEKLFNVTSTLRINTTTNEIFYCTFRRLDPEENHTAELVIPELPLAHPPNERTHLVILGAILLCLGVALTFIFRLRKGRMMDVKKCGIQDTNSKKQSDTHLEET

Sequence of His-tagged huPD-L1 (Q9NZQ7 19-238): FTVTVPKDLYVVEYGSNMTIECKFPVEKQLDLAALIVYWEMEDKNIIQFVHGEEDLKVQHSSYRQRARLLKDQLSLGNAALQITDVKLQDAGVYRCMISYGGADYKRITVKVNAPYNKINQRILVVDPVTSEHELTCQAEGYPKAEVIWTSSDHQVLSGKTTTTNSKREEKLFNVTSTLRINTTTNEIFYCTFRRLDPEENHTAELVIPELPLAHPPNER
Sequence of FITC labeled human PD-L1-Fc protein (Q9NZQ7 19-238): as above
Sequence of His tagged TGF-β1 (P01137 279-390): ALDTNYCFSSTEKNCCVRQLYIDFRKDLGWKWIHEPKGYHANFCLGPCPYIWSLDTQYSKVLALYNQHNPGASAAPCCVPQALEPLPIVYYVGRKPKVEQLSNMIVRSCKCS
Sequence of huTGF-β1 (P01137 279-390): as above

B1: Bi-PLB-1.2 (antibody)
chain 1: not shown
chain 2: DIQMTQSPSFLSASVGDRVTITCKASQNVGTNVAWYQQKPGKAPKALIYSASYRYSGVPSRFSGSGSGTEFTLTISSLQPEDFATYYCQQYYSYPYTFGQGTKLEIKRTVAAPSVFIFPPSDEQLKSGTASVVCLLNNFYPREAKVQWKVDNALQSGNSQESVTEQDSKDSTYSLSSTLTLSKADYEKHKVYACEVTHQGLSSPVTKSFNRGEC
Kd (His tagged TGF-β1): 0.28 nM
Kd (His-tagged huPD-L1): 0.83 nM
EC50 (huTGF-β1): 10.3 nM
IC50 [1]: 1.23 nM
EC50 [2]: 1.6 nM
